The values that follow come from patent US20110195021A1 (IMMUNOGEN, published 2011).

Like-named read-outs stand apart in the source and are kept apart here.

Experiment [1] concerns the target T1, human CD20 (human, UniProt P11836 1-297).
T1 construct: whole, on cells; also called wild type CD20; MS4A1
T1 sequence (looked up): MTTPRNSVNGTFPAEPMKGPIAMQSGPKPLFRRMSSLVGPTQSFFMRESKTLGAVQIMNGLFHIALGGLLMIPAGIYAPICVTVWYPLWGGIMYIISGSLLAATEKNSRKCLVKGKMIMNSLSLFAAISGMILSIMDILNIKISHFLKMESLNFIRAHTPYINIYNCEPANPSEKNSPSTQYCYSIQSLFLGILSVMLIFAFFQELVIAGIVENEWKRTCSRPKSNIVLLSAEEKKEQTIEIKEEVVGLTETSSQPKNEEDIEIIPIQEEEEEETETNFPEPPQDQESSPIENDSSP
In words: flow cytometry on 300-19 cells transfected with wild type human CD20. In general terms: In flow cytometry, cells or beads pass a laser one at a time.

For experiment [2], the target named is human CD20 (human) (UniProt P11836). The experiment in a line: cell-based or functional assay.
The target is the same in experiment [3]. In words: flow cytometry on SU-DHL-4 cells.
Experiment [4] deals with T2, CD20 N163D (human, UniProt P11836 1-297).
T2 construct: whole, on cells; Stably expressed on 300-19 cells
T2 sequence (looked up): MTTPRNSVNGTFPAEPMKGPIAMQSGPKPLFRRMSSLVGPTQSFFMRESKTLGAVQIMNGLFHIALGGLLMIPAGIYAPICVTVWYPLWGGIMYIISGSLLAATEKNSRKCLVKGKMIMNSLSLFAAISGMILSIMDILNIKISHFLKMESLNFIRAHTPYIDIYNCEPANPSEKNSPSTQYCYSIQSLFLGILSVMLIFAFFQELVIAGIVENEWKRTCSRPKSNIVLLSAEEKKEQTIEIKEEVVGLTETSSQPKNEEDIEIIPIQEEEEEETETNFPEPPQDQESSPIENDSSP
The experiment in a line: flow cytometry on 300-19 cells transfected with human CD20 N163D.

The target in experiment [5] is T3, CD20-A170S P172S variant (human, UniProt P11836 1-297).
T3 construct: Stably expressed on 300-19 cells; also called CD20-AP; CD20AP
T3 chain: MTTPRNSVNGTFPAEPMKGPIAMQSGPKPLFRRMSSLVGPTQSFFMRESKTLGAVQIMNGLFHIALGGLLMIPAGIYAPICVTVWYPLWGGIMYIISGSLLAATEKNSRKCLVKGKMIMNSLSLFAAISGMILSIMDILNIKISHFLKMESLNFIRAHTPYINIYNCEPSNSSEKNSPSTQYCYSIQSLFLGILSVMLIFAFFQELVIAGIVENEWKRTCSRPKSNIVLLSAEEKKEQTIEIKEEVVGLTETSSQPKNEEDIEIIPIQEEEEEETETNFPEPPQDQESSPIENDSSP
In words: flow cytometry on 300-19 cells transfected with human CD20 A170S P172S.

Experiment [6] deals with T1, human CD20. In words: flow cytometry on BJAB cells, apparent dissociation constant from the MFI dose-response curve; muCD20-6 on BJAB cells.
Protocol: (§1) Binding specificity was tested by flow cytometry using purified antibodies. […] Then, the cells were pelleted, washed, and incubated for 1 h with 100 μL of FITC-conjugated goat anti-mouse IgG-antibody (such as is obtainable from, for example Jackson Laboratory, 6 μg/mL in FACS buffer). The cells were pelleted again, washed with FACS buffer and resuspended in 200 μL of PBS containing 1% formaldehyde. Samples were acquired using a FACSCalibur flow cytometer with the HTS multiwell sampler or a FACS array flow cytometer and analyzed using CellQuest Pro (all from BD Biosciences, San Diego, US).
(§2) Data analysis was performed using CellQuest Pro (BD Biosciences, San Diego, US) and for each sample the mean fluorescence intensity for FL1 (MFI) was exported and plotted against the antibody concentration in a semi-log plot.
The target of experiment [7] is T1, human CD20. The experiment in a line: flow cytometry on 300-19 cells transfected with wild type human CD20. The source holds these as a separate data set.
Experiment [8] addresses T1, human CD20. In words: flow cytometry on BJAB cells, apparent Kd.
Protocol: as §1, §2
The value for the apparent dissociation constant (Kd) of each antibody was calculated using GraphPad Prism v4 (GraphPad software, San Diego, Calif.).
In experiment [9] the target is T4, CD20 N163D N166D (human, UniProt P11836 1-297).
T4 construct: whole, on cells; Stably expressed on 300-19 cells; also called CD20-NNDD
T4 sequence (looked up): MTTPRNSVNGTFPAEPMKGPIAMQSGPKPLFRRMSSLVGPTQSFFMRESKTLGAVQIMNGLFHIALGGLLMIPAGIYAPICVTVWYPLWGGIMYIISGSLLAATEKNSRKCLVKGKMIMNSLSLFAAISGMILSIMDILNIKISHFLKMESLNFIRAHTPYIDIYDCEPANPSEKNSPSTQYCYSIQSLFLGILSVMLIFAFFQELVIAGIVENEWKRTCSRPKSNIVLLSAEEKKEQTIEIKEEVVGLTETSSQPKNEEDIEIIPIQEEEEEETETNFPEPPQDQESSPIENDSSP
In words: flow cytometry on 300-19 cells transfected with human CD20 N163D N166D.

Experiment [10] concerns the target T1, human CD20. The experiment in a line: flow cytometry on BJAB cells, apparent dissociation constant from the MFI dose-response curve; muCD20-7 on BJAB cells.
Protocol: as §1, §2
Experiment [11] concerns the target T1, human CD20. In words: flow cytometry on 300-19 cells transfected with wild type human CD20. The source holds these as a separate data set.

What is called EC50 (read off the curve) is the concentration at which the effect is half-maximal. The low end stands for higher potency in that assay, the high end for lower potency in that assay. B1 (antibody): in experiment [1], the EC50 (read off the curve) stood at 0.4 nM.

In experiment [2], rituximab-SMCC-[^3H]DM1 (antibody) had an IC50, cell-based viability assay, CD20-positive SU-DHL-4 cells of 0.24 nM. Also, the 50% effective concentration (EC50 (read off the curve)) in [3] was determined as 1 nM.

B1: muCD20-6 (antibody, mouse IgG1, kappa, V domains shown)
VH: QIQLVQSGPELKKPGETVKISCKASGYKFTNVGMNWVKQVPGKGLKWMGWINTYTGEPAYADDFKGRFVFSLETSASAAFLQINNLKNEDTATYFCARGAYYRYDLGMDYWGQGTSVTVSS
VL: DIVLTQSPASLAVSLGQRAIISCRASESVDNFGNSFMHWYQQKPGQPPTLLIYRASNLESGIPARFSGSGSRTDFTLTVNPVEADDIATYYCQQSYEDPFTFGAGTKLELKR
notes: Murine monoclonal antibody purified from hybridoma (ATCC PTA-10486); also called murine CD20-6
In the case of B1, the binding result in [4] is listed as “no binding (tested: 10^-7.5 M (about 3x10^-8 M))”; in experiment [5], “binds”. The Kd in experiment [6] stood at 0.4 nM. Besides, in [7], the “EC50 (read off the curve)” value was approximately 0.8 nM.

B2: chCD20-7 (antibody, V domains shown)
VH: QLQLVQSGPELKKPGETVKISCKASGYSFTNYGMNWVKQAPGKGLKWMGWINTYTGEPSYADDFKGRFAFSLETSASTAYLQISNLKNEDTATYFCARGAYYRYDLGMDYWGQGTSVTVSS
VL: DIVLTQSPASLAVSLGQRATISCRASGSVDSFGNSFMHWYQQKPGQPPKLLIYRASNLESGVPARFSGGGSRTDFTLTINPVEADDIATYFCQQSYEDPFTFGAGTKLELMR
notes: Chimeric antibody: CD20-7 variable regions cloned into pchCD20-7HCN and pchCD20-7LCZ and expressed in HEK-293T cells; also called chimeric CD20-7
B2: in experiment [8], the Kd was determined as 0.5 nM.

B3: muCD20-7 (antibody, mouse IgG1, kappa, V domains shown)
VH: QLQLVQSGPELKKPGETVKISCKASGYSFTNYGMNWVKQAPGKGLKWMGWINTYTGEPSYADDFKGRFAFSLETSASTAYLQISNLKNEDTATYFCARGAYYRYDLGMDYWGQGTSVTVSS
VL: DIVLTQSPASLAVSLGQRATISCRASGSVDSFGNSFMHWYQQKPGQPPKLLIYRASNLESGVPARFSGGGSRTDFTLTINPVEADDIATYFCQQSYEDPFTFGAGTKLELMR
notes: Murine monoclonal antibody purified from hybridoma (ATCC PTA-10487); also called murine CD20-7
B3: the results for the binding result in experiment [9], in experiment [4] and in experiment [5] were “no binding (tested: 10^-7.5 M (about 3x10^-8 M))”, “no binding (tested: 10^-7.5 M (about 3x10^-8 M))” and “binds”, respectively. Further, the values for the Kd in experiment [8] and in [10] were 0.4 nM and 0.3 nM, respectively. In experiment [7], the “EC50 (read off the curve)” value was approximately 0.5 nM.

B4: rituximab (antibody, V domains shown)
VH: QVQLQQPGAELVKPGASVKMSCKASGYTFTSYNMHWVKQTPGRGLEWIGAIYPGNGDTSYNQKFKGKATLTADKSSSTAYMQLSSLTSEDSAVYYCARSTYYGGDWYFNVWGAGTTVTVSA
VL: QIVLSQSPAILSASPGEKVTMTCRASSSVSYIHWFQQKPGSSPKPWIYATSNLASGVPVRFSGSGSGTSYSLTISRVEAEDAATYYCQQWTSNPPTFGGGTKLEIK
For B4, in experiment [11], the “EC50 (read off the curve)” value was approximately 0.5 nM.
